In US20020103111A1, “Inhibitors of MAdCAM-1-mediated interactions and methods of use therefor” (Millennium Pharmaceuticals, Inc., priority 1996, published 2002):
Square brackets hold non-standard residues; d marks the D form. Ends that are not written are not given here. NMeL = CN[C@@H](CC(C)C)C(=O)O

Tests used:
[1] = target: human α4β7 integrin (human) (UniProt P13612); assay: inhibition of HUT 78 cell adhesion to murine MAdCAM-1/mCk at 500 µM
[2] = target: human α4β7 integrin (human) (UniProt P13612); assay: inhibition of HUT 78 cell adhesion to murine MAdCAM-1/mCk
[3] = target: human α4β7 integrin (human) (UniProt P13612); assay: inhibition of HUT 78 cell adhesion to murine MAdCAM-1/mCk at 100 µM
[4] = target: human α4β7 integrin (human) (UniProt P13612); assay: RPMI 8866 adhesion to chimera on Protein A; neat; after control MAb 2G7

Row | Substance | % Adhesion Inhibition [1] [%] | IC50 [2] [µM] | further results
1 | Ac-WRGLDTSLGS | 71 | – | –
2 | Pba-Asp-Thr (peptide) | – | 13.5 | % Adhesion Inhibition [3]: 100%
3 | Ac-[NMeL]LDTSL | 28 | 1320 | –
4 | Pca-Leu-Asp-Thr-Ser-Leu (peptide) | – | 2.1 | –
5 | [NMeL]LDTSL | 54 | 256 | –
6 | Dphb-Leu-Asp-Thr-Ser-Leu (peptide) | – | 15 | –
7 | Ac-MeLeu-Asp-Thr-Ser-Leu (peptide) | – | 150 | –
8 | 2-Anc-Leu-Asp-Thr-Ser-Leu (peptide) | – | 5.4 | –
9 | Pba-Leu-Asp-Thr-Ser-Leu (00789-1A) (peptide) | – | 4 | –
10 | Ac-RGLDTSLG | 75 | – | –
11 | Pba-Asp-Thr-Ser-Leu (peptide) | – | 13.3 | % Adhesion Inhibition [3]: 100%
12 | Ac-RVHWRGLDTSLGSVQ | 88 | – | –
13 | human MAdCAM-1-IgG chimera (huMAdCAM-1-Ig, construct HuMAdIg21) (from UniProt P01857 1-330) (Fc fusion) | – | – | bound cells (raw fluorescence) [4]: 196000

Further lines, with some results ahead:

Row | % Adhesion Inhibition [1] [%] | IC50 [2] [µM] | Substance | further results
14 | – | 11 | Pca-Asp-Thr (peptide) | –
15 | 71 | – | Ac-HWRGLDTSLGSV | –
16 | 90 | – | H-RVHWRGLDTSLGSVQ | –
17 | 22 | – | NH2-Leu-Asp-Thr-Ser-Leu (peptide) | –
18 | 17 | – | Ac-Lle-Asp-Thr-Ser-Leu (peptide) | –
19 | – | 8.9 | Cpc-Asp-Thr-Ser-Leu (peptide) | –
20 | 76 | – | H-WRGLDTSLGS | –
21 | 80 | – | H-HWRGLDTSLGSV | –
